Test results reported in patent US20120316071A1 (published 2012).
Blank lines part the entries; values can stand above or below the binder they belong to.

Experiments:
[1] = biological target: T1, rHuman P-Cadherin/Fc Chimera, CF (R&D Systems Cat#861-PC) (human, UniProt P22223 108-654); test: ECL multispot (MSD), antigen spotted; blank spot of this well 287
T1 construct: Bought protein

[2] = biological target: T2, rHuman IGF-1 sR, CF (R&D Systems Cat#391-GR) (human, UniProt P08069 31-932); test: as above
T2 construct: Bought soluble receptor; also called insulin-like growth factor-1 soluble receptor

[3] = biological target: T3, rHuman EGF R/Fc Chimera, CF (R&D Systems Cat#344-ER) (human, UniProt P00533 25-645); test: as above
T3 construct: Bought protein; also called epidermal growth factor receptor

[4] = biological target: T4, rHuman HGF R/c-MET/Fc Chimera, CF (R&D Systems Cat#358-MT/CF) (human, UniProt P08581 25-932); test: as above
T4 construct: Bought protein; also called HGF R/Fc; hepatocyte growth factor receptor

[5] = biological target: T5, Recombinant Human DLL4 (R&D Systems Cat#1506-D4/CF) (human, UniProt Q9NR61 27-524); test: as above
T5 construct: Bought recombinant protein; also called delta-like protein 4; rHuman DLL4

[6] = biological target: T6, rHuman Erythropoietin R/Fc Chimera, CF (R&D Systems Cat#963-ER) (human, UniProt P19235 25-250); test: as above
T6 construct: Bought protein; also called EPO R; EPO R/Fc
T6 sequence (looked up): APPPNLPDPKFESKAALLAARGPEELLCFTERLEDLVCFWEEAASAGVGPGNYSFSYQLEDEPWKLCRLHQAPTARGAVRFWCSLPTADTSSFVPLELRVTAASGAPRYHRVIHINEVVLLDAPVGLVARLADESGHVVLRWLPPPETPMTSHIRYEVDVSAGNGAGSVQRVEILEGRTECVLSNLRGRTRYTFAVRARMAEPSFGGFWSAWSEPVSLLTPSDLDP

[7] = biological target: T7, rHuman CD44/Fc Chimera, CF (R&D Systems Cat#3660-CD) (human, UniProt P16070 21-220); test: as above
T7 construct: Bought protein

[8] = biological target: T8, rHuman ErbB2/Fc Chimera, CF (R&D Systems Cat#1129-ER) (human, UniProt P04626 23-652); test: as above
T8 construct: Bought protein; also called human epidermal growth factor 2 receptor

[9] = biological target: T9, rHuman Notch-1/Fc Chimera, CF (R&D Systems Cat#3647-TK) (human, UniProt P46531 19-526); test: as above
T9 construct: Bought protein

[10] = biological target: T1, rHuman P-Cadherin/Fc Chimera, CF (R&D …); test: ECL multispot (MSD), antigen spotted; blank spot of this well 229
[11] = biological target: T2, rHuman IGF-1 sR, CF (R&D Systems …); test: as above
[12] = biological target: T3, rHuman EGF R/Fc Chimera, CF (R&D …); test: as above
[13] = biological target: T4, rHuman HGF R/c-MET/Fc Chimera, CF (R&D …); test: as above
[14] = biological target: T5, Recombinant Human DLL4 (R&D Systems …); test: as above
[15] = biological target: T6, rHuman Erythropoietin R/Fc Chimera, CF …; test: as above
[16] = biological target: T7, rHuman CD44/Fc Chimera, CF (R&D Systems …); test: as above
[17] = biological target: T8, rHuman ErbB2/Fc Chimera, CF (R&D …); test: as above
[18] = biological target: T9, rHuman Notch-1/Fc Chimera, CF (R&D …); test: as above
[19] = biological target: T1, rHuman P-Cadherin/Fc Chimera, CF (R&D …); test: ECL multispot (MSD), antigen spotted; blank spot of this well 261
[20] = biological target: T2, rHuman IGF-1 sR, CF (R&D Systems …); test: as above
[21] = biological target: T3, rHuman EGF R/Fc Chimera, CF (R&D …); test: as above
[22] = biological target: T4, rHuman HGF R/c-MET/Fc Chimera, CF (R&D …); test: as above
[23] = biological target: T5, Recombinant Human DLL4 (R&D Systems …); test: as above
[24] = biological target: T6, rHuman Erythropoietin R/Fc Chimera, CF …; test: as above
[25] = biological target: T7, rHuman CD44/Fc Chimera, CF (R&D Systems …); test: as above
[26] = biological target: T8, rHuman ErbB2/Fc Chimera, CF (R&D …); test: as above
[27] = biological target: T9, rHuman Notch-1/Fc Chimera, CF (R&D …); test: as above
[28] = biological target: T10, rHuman IGF-1 sR (insulin-like growth factor-1 soluble receptor), CF (R&D Systems Cat#391-GR) (human, UniProt P08069 31-932); test: ECL multispot (MSD) assay, antigen spotted on plate, Fab in solution; blank spot of this well 271
T10 construct: Bought recombinant soluble receptor

[29] = biological target: rHuman Erythropoietin R/Fc Chimera, CF (R&D Systems Cat#963-ER) (human, UniProt P19235 25-250); test: as above
[30] = biological target: rHuman P-Cadherin/Fc Chimera, CF (R&D Systems Cat#861-PC) (human, UniProt P22223 108-654); test: as above
[31] = biological target: T11, rHuman Notch-1/Fc Chimera, CF (R&D Systems Cat#3647-TK) (human); test: as above
T11 chain: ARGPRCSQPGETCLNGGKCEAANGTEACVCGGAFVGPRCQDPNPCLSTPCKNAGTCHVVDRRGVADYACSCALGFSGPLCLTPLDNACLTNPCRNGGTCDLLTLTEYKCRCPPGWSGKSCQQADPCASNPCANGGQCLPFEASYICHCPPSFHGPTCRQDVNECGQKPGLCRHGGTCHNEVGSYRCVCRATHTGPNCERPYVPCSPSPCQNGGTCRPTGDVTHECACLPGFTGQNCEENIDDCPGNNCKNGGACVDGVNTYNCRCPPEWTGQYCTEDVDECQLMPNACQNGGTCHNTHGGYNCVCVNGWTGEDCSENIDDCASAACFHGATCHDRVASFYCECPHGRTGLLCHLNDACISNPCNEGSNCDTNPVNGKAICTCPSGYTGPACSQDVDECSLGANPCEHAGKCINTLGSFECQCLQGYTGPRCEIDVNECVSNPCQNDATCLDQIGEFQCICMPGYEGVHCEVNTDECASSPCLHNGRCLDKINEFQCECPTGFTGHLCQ

[32] = biological target: T12, Recombinant Human DLL4 (R&D Systems Cat#1506-D4/CF) (human, UniProt Q9NR61 27-524); test: as above
T12 construct: Bought recombinant protein; also called delta-like protein 4; rHuman DLL4

[33] = biological target: rHuman HGF R/c-MET/Fc Chimera, CF (R&D Systems Cat#358-MT/CF) (human, UniProt P08581 25-932); test: as above
[34] = biological target: rHuman CD44/Fc Chimera, CF (R&D Systems Cat#3660-CD) (human, UniProt P16070 21-220); test: as above

- ECL signal [1]: 250
- ECL signal [2]: 162
- ECL signal [3]: 226
- ECL signal [4]: 344
- ECL signal [5]: 2440
- ECL signal [6]: 319
- ECL signal [7]: 205
- ECL signal [8]: 317
- ECL signal [9]: 358
- ECL signal [10]: 189
- ECL signal [11]: 223
- ECL signal [12]: 363
- ECL signal [13]: 307
- ECL signal [14]: 2580
- ECL signal [15]: 252
- ECL signal [16]: 223
- ECL signal [17]: 331
- ECL signal [18]: 398
B1: Fab VH1-46_IGHD6-6*01_IGHJ1*01 S102A/S103P/S104F (APF) & L6_IGKJ1*01 (Fab, V domains shown)
VH: QVQLVQSGAEVKKPGASVKVSCKASGYTFTSYYMHWVRQAPGQGLEWMGIINPSGGSTSYAQKFQGRVTMTRDTSTSTVYMELSSLRSEDTAVYYCAREEYAPFSAEYFQHWGQGTLVTVSS
VL: not shown
notes: Fab made in E. coli: VH cloned into Plasmid A (CH1, His6 and Flag tags), VL into Plasmid C (kappa CL); Template of the light chain NNK mutants; also called APF / parent; H:APF & L:wt

- ECL signal [19]: 314
- ECL signal [20]: 210
- ECL signal [21]: 290
- ECL signal [22]: 325
- ECL signal [23]: 817
- ECL signal [24]: 263
- ECL signal [25]: 268
- ECL signal [26]: 234
- ECL signal [27]: 229
B2: Fab VH1-46_IGHD6-6*01_IGHJ1*01 S102A/S103P/S104F (APF) & L6_IGKJ1*01 R91Q (Fab, V domains shown)
VH: QVQLVQSGAEVKKPGASVKVSCKASGYTFTSYYMHWVRQAPGQGLEWMGIINPSGGSTSYAQKFQGRVTMTRDTSTSTVYMELSSLRSEDTAVYYCAREEYAPFSAEYFQHWGQGTLVTVSS
VL: EIVLTQSPATLSLSPGERATLSCRASQSVSSYLAWYQQKPGQAPRLLIYDASNRATGIPARFSGSGSGTDFTLTISSLEPEDFAVYYCQQQSNWPPWTFGQGTKVEIKR
notes: Fab made in E. coli: VH cloned into Plasmid A (CH1, His6 and Flag tags), VL into Plasmid C (kappa CL); also called APF / R91Q

- ECL signal [28]: 211
- ECL signal [29]: 304
- ECL signal [30]: 240
- ECL signal [31]: 193
- ECL signal [32]: 2090
- ECL signal [33]: 405
- ECL signal [34]: 316
B3: Fab VH1-46_IGHD6-6*01_IGHJ1*01 S102A/S103P/S104F (APF) & L6_IGKJ1*01 S92N (Fab, V domains shown)
VH: QVQLVQSGAEVKKPGASVKVSCKASGYTFTSYYMHWVRQAPGQGLEWMGIINPSGGSTSYAQKFQGRVTMTRDTSTSTVYMELSSLRSEDTAVYYCAREEYAPFSAEYFQHWGQGTLVTVSS
VL: EIVLTQSPATLSLSPGERATLSCRASQSVSSYLAWYQQKPGQAPRLLIYDASNRATGIPARFSGSGSGTDFTLTISSLEPEDFAVYYCQQRNNWPPWTFGQGTKVEIKR
notes: Fab made in E. coli (heavy chain in plasmid A with CH1, His6 and Flag tags; kappa light chain in plasmid C); also called APF / S92N
